B1: F1*; the commonest letter at each place (parent)
chain: GAGACCGCAACTGAAAAGTTGTTATCACTTGTCGTAAGACACTTTGGATGGGTTGAAGTTCTGCACGTAGAAGCAAAAGGC

Variants of: B1
Test: fraction ligated after 30 min (ligated reads / total reads); higher = more ligase activity
Conditions: with F1*sub RNA substrate (template-directed ligation), 42 °C
In short: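 Templates from an oligo pool were PCR-amplified, transcribed with T7 and gel-purified to give the ribozyme variants. Ligated and unligated products were separated on gel, reverse transcribed using barcoded primers, and read on a MiSeq. A quality filter of ≥20 was applied to core bases. Fraction ligated was taken as ligated reads as a share of all reads per variant.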

| Variant | fraction ligated |
| --- | --- |
| C42T G55T | 0.848 |
| C42T G55A | 0.844 |
| C42T G55C | 0.797 |
| T45A G55C | 0.067 |
| T45A G55A | 0.274 |
| T45A G55T | 0.144 |
| C42T T45A | 0.799 |
| C42T T45G | 0.557 |
| C42T T45C | 0.79 |
| T44A G50C | 0.442 |
| T44A G50A | 0.643 |
| T44A G50T | 0.758 |
| T43C T49A | 0.638 |
| T43C T49C | 0.427 |
| T43C T49G | 0.665 |
| C42A T43C | 0.825 |
| C42A T43A | 0.82 |
| C42A T43G | 0.805 |
| T44G A48T | 0.782 |
| T44G A48C | 0.757 |
| T44G A48G | 0.787 |
| C42T A48T | 0.796 |
| C42T A48G | 0.806 |
| C42T A48C | 0.779 |

| Variant | fraction ligated |
| --- | --- |
| T43A T44C | 0.836 |
| T43A T44A | 0.848 |
| T43A T44G | 0.804 |
| T44C G50A | 0.406 |
| T44C G50T | 0.691 |
| T44C G50C | 0.224 |
| T44A G55A | 0.827 |
| T44A G55T | 0.829 |
| T44A G55C | 0.795 |
| A41T T45G | 0.283 |
| C42G T45G | 0.291 |
| C42G T45C | 0.756 |
| C42G T45A | 0.796 |
| T43G A56G | 0.717 |
| T43G A56T | 0.764 |
| T43G A56C | 0.713 |
| T45C A57C | 0.785 |
| T45C A57G | 0.812 |
| T45C A57T | 0.777 |
| T44C G46T | 0.787 |
| T44C G46A | 0.778 |
| T44C G46C | 0.8 |
| T43C G46T | 0.776 |
| T43C G46A | 0.789 |

| Variant | fraction ligated |
| --- | --- |
| T43C G46C | 0.791 |
| T44C A56G | 0.793 |
| T44C A56C | 0.791 |
| T44C A56T | 0.78 |
| T44A A56G | 0.777 |
| T44A A56T | 0.801 |
| T44A A56C | 0.797 |
| T44C G55A | 0.815 |
| T44C G55C | 0.754 |
| T44C G55T | 0.779 |
| T44A G47C | 0.117 |
| T44A G47A | 0.773 |
| T44A G47T | 0.55 |
| T43A G46T | 0.81 |
| T43A G46A | 0.789 |
| T43A G46C | 0.789 |
| T43G G46C | 0.783 |
| T43G G46T | 0.787 |
| T43G G46A | 0.808 |
| C42T T43A | 0.866 |
| C42T T43G | 0.818 |
| C42T T43C | 0.828 |
| C42T T49A | 0.791 |
| C42T T49G | 0.782 |

| Variant | fraction ligated |
| --- | --- |
| C42T T49C | 0.774 |
| C42G G47T | 0.68 |
| C42G G47C | 0.64 |
| C42G G47A | 0.805 |
| T43G A57C | 0.809 |
| T43G A57G | 0.803 |
| T43G A57T | 0.799 |
| T43A G55A | 0.854 |
| T43A G55C | 0.724 |
| T43A G55T | 0.839 |
| T43A A56T | 0.81 |
| T43A A56C | 0.79 |
| T43A A56G | 0.782 |
| T45A A48T | 0.0749 |
| T45A A48G | 0.261 |
| T45A A48C | 0.23 |
| C42A T45C | 0.778 |
| C42A T45G | 0.282 |
| C42A T45A | 0.766 |
| T44C A57C | 0.744 |
| T44C A57G | 0.802 |
| T44C A57T | 0.806 |
| C42G T44C | 0.851 |
| C42G T44A | 0.851 |

| Variant | fraction ligated |
| --- | --- |
| C42G T44G | 0.841 |
| T44C A48C | 0.783 |
| T44C A48T | 0.781 |
| T44C A48G | 0.821 |
| T44G G50C | 0.0717 |
| T44G G50A | 0.132 |
| T44G G50T | 0.344 |
| T44A T45C | 0.8 |
| T44A T45G | 0.187 |
| T44A T45A | 0.762 |
| T43A T45G | 0.43 |
| T43A T45C | 0.696 |
| T43A T45A | 0.725 |
| T43G G47T | 0.52 |
| T43G G47A | 0.802 |
| T43G G47C | 0.447 |
| C42T A56T | 0.811 |
| C42T A56C | 0.797 |
| C42T A56G | 0.821 |
| T44A A57G | 0.812 |
| T44A A57C | 0.796 |
| T44A A57T | 0.815 |
| A41T T49C | 0.658 |
| A41T T49G | 0.749 |

| Variant | fraction ligated |
| --- | --- |
| A41T T49A | 0.686 |
| C42G T49A | 0.79 |
| C42G T49G | 0.777 |
| C42G T49C | 0.727 |
| C42G G46T | 0.793 |
| C42G G46C | 0.816 |
| C42G G46A | 0.808 |
| T44G T45C | 0.797 |
| T44G T45A | 0.769 |
| T44G T45G | 0.35 |
| T43A A48G | 0.807 |
| T43A A48C | 0.734 |
| T43A A48T | 0.774 |
| T43C G55T | 0.817 |
| T43C G55C | 0.571 |
| T43C G55A | 0.803 |
| T44G A57G | 0.791 |
| T44G A57T | 0.857 |
| T44G A57C | 0.816 |
| T44G T49G | 0.714 |
| T44G T49C | 0.183 |
| T44G T49A | 0.584 |
| T44A G46T | 0.81 |
| T44A G46A | 0.816 |

| Variant | fraction ligated |
| --- | --- |
| T44A G46C | 0.793 |
| C42G T43C | 0.836 |
| C42G T43G | 0.827 |
| C42G T43A | 0.856 |
| T45A A56T | 0.793 |
| T45A A56G | 0.768 |
| T45A A56C | 0.782 |
| T43C T45A | 0.574 |
| T43C T45G | 0.257 |
| T43C T45C | 0.584 |
| C42A G46T | 0.789 |
| C42A G46A | 0.821 |
| C42A G46C | 0.811 |
| T43C G47A | 0.767 |
| T43C G47C | 0.276 |
| T43C G47T | 0.446 |
| T45C G55C | 0.0438 |
| T45C G55A | 0.521 |
| T45C G55T | 0.134 |
| T43C G50T | 0.441 |
| T43C G50A | 0.187 |
| T43C G50C | 0.111 |
| C42G G55A | 0.853 |

Source: the supplement of paper PMC6755084
